Data on three molecules can be found in PMC4518479, “Rad51 Paralogs Remodel Pre-synaptic Rad51 Filaments to Stimulate Homologous Recombination” (Cell, 2015).

Data set [1] concerns the target T1, RAD-51;RFS-1(E138A)/RIP-1 (Caenorhabditis elegans;Caenorhabditis …, UniProt Q7K7I8;P34348;Q21621 1-357;1-245;1-209, |E138A).
T1 sequence 1: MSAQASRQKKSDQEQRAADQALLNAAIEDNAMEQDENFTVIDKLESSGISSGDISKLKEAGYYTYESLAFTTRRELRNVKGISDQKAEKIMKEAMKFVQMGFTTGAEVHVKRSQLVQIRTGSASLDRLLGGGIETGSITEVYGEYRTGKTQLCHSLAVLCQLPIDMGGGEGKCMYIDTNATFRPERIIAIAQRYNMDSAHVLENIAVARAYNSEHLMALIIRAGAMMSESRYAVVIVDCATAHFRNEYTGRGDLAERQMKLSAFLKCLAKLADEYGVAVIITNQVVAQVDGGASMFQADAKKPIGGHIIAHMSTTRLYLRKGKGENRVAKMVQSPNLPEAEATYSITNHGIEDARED
T1 sequence 2: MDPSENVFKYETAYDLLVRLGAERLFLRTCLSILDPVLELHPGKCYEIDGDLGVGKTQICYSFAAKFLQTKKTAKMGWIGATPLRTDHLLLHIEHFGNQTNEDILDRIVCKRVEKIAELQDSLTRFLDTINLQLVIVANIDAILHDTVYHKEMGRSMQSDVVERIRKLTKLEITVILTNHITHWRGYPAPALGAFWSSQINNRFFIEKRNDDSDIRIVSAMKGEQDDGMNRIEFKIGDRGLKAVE
T1 sequence 3: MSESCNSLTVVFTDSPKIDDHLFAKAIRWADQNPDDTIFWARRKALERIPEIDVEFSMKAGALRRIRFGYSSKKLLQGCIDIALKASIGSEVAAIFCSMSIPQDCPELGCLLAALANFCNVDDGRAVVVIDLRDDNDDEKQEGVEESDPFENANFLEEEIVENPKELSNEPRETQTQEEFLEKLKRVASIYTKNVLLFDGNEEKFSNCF
The data set is described as follows: EMSA; ATP; filament binding similar to wild type; EMSA: 20 mM triethanolamine-HCl pH 7.5, 8% glycerol, 1 mM DTT, 50 mM sodium acetate, 2 mM MgCl2 + 2 mM nucleotide (or 10 mM EDTA), 100 nM (nt) DNA, 25 °C. The settings on record: protein: recombinant;recombinant; tags: none (His-SUMO tag cleaved);3xFLAG at RIP-1 C-terminus; label: 5'-32P or 5'-fluorescein.

The target of data set [2] is T2, RAD-51;RFS-1(K56A)/RIP-1 (Caenorhabditis elegans;Caenorhabditis …, UniProt Q7K7I8;P34348;Q21621 1-357;1-245;1-209, |K56A).
T2 sequence 1: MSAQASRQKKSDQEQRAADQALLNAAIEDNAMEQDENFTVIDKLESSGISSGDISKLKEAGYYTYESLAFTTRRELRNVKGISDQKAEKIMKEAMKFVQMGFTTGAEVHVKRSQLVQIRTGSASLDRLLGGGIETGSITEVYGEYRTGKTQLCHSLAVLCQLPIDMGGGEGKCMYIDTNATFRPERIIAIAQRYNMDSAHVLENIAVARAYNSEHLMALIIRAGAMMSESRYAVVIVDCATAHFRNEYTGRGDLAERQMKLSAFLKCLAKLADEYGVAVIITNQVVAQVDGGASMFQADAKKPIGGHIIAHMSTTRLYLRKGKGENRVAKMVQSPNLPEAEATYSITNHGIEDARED
T2 sequence 2: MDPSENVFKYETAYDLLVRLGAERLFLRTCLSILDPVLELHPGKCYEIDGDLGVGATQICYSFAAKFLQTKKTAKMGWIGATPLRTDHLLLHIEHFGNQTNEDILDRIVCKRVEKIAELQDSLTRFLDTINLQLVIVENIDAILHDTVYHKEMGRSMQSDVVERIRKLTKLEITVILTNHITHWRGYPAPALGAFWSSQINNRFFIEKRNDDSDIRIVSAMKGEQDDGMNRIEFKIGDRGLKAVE
T2 sequence 3: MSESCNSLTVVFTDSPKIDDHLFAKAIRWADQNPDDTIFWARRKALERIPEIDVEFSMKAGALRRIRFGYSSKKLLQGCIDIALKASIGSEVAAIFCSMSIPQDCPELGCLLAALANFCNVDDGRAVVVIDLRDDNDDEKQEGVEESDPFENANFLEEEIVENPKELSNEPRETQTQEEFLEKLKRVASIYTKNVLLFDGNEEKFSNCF
The data set is described as above. The settings on record: protein: recombinant;recombinant; tags: none (His-SUMO tag cleaved);3xFLAG at RIP-1 C-terminus; label: 5'-32P or 5'-fluorescein.

For data set [3], the target named is T3, RFS-1/RIP-1 (Caenorhabditis elegans, UniProt P34348;Q21621 1-245;1-209).
T3 sequence 1: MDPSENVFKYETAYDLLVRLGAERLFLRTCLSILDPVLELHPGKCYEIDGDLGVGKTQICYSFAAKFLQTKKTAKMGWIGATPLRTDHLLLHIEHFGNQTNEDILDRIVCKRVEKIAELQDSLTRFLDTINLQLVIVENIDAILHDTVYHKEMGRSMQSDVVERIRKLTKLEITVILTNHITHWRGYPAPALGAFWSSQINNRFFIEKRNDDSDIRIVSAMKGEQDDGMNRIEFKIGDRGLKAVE
T3 sequence 2: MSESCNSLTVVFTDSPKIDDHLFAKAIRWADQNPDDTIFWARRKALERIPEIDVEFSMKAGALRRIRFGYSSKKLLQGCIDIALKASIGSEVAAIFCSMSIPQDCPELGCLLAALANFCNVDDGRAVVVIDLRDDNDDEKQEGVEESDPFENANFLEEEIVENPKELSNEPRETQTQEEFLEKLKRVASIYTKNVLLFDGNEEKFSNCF
The data set is described as follows: EMSA; weak binding; nucleotide independent; EMSA: 20 mM triethanolamine-HCl pH 7.5, 8% glycerol, 1 mM DTT, 50 mM sodium acetate, 2 mM MgCl2 + 2 mM nucleotide (or 10 mM EDTA), 100 nM (nt) DNA, 25 °C. The settings on record: protein: recombinant; copies: 1;1; label: 5'-32P or 5'-fluorescein. In general terms: A gel shift assay detects complexes by their altered migration in electrophoresis.

The target in data set [4] is T4, RAD-51;RFS-1/RIP-1 (Caenorhabditis elegans;Caenorhabditis …, UniProt Q7K7I8;P34348;Q21621 1-357;1-245;1-209, |).
T4 sequence 1: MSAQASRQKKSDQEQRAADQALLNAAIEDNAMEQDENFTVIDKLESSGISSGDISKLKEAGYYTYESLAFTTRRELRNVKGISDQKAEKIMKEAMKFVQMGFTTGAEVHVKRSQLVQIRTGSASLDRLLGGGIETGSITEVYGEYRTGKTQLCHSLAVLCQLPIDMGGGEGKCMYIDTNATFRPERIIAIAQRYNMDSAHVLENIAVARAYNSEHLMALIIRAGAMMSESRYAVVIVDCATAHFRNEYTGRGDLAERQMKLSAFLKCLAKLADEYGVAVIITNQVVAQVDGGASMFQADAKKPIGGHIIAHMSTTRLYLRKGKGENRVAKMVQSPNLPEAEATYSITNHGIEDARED
T4 sequence 2: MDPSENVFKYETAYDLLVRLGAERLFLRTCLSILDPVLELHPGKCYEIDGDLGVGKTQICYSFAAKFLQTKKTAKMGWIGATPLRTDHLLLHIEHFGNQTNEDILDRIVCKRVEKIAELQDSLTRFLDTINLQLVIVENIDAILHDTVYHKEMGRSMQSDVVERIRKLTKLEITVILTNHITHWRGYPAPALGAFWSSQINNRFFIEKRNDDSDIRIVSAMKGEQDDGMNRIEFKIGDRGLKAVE
T4 sequence 3: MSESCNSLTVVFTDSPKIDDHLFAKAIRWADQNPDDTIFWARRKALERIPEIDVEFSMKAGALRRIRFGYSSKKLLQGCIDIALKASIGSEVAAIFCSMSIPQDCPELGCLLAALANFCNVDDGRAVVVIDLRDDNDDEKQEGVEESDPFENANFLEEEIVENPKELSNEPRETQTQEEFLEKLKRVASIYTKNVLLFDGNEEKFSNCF
Put plainly: EMSA with anti-FLAG immuno-shift; ATP; RFS-1/RIP-1 bound to RAD-51 filament; EMSA: 20 mM triethanolamine-HCl pH 7.5, 8% glycerol, 1 mM DTT, 50 mM sodium acetate, 2 mM MgCl2 + 2 mM nucleotide (or 10 mM EDTA), 100 nM (nt) DNA, 25 °C. The settings on record: protein: recombinant;recombinant; label: 5'-32P or 5'-fluorescein.

Data set [5] has as its target T5, RFS-1(E138A)/RIP-1 (Caenorhabditis elegans, UniProt P34348;Q21621 1-245;1-209, E138A).
T5 sequence 1: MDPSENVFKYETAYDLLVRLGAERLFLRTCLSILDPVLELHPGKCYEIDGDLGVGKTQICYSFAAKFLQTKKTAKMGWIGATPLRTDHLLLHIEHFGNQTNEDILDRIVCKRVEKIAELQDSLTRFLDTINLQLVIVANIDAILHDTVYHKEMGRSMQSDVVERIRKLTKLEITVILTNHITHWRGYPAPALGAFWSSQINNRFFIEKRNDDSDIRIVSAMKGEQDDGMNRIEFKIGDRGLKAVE
T5 sequence 2: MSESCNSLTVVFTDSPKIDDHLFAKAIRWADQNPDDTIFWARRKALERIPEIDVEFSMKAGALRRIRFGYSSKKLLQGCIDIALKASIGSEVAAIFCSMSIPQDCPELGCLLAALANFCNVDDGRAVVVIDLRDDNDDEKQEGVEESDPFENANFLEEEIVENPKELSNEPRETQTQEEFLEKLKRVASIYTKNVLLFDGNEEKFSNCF
Put plainly: EMSA; increased ssDNA affinity relative to wild type; EMSA: 20 mM triethanolamine-HCl pH 7.5, 8% glycerol, 1 mM DTT, 50 mM sodium acetate, 2 mM MgCl2 + 2 mM nucleotide (or 10 mM EDTA), 100 nM (nt) DNA, 25 °C. The settings on record: protein: recombinant; tags: 3xFLAG at RIP-1 C-terminus; copies: 1;1; label: 5'-32P or 5'-fluorescein.

The target in data set [6] is T6, RFS-1(K56A)/RIP-1 (Caenorhabditis elegans, UniProt P34348;Q21621 1-245;1-209, K56A).
T6 sequence 1: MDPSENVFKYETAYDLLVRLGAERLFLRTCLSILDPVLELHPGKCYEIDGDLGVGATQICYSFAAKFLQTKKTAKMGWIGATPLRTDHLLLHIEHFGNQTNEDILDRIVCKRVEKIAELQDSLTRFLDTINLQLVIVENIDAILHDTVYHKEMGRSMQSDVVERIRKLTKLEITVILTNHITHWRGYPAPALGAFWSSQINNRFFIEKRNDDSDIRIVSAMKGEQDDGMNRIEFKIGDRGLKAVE
T6 sequence 2: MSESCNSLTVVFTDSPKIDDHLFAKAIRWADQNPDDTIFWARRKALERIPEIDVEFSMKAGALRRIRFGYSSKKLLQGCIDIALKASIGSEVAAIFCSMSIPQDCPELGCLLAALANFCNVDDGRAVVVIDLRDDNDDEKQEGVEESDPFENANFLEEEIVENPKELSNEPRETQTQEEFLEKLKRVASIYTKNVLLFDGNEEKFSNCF
The data set is described as above. The settings on record: protein: recombinant; tags: 3xFLAG at RIP-1 C-terminus; copies: 1;1; label: 5'-32P or 5'-fluorescein.

The target in data set [7] is T3, RFS-1/RIP-1. The data set is described as follows: EMSA; EMSA: 20 mM triethanolamine-HCl pH 7.5, 8% glycerol, 1 mM DTT, 50 mM sodium acetate, 2 mM MgCl2 + 2 mM nucleotide (or 10 mM EDTA), 100 nM (nt) DNA, 25 °C. The settings on record: protein: recombinant; copies: 1;1; label: 5'-32P; blunt.
Data set [8] addresses T7, FLAG-tagged RIP-1 co-expressed with RFS-1 in budding yeast (C. elegans, UniProt Q21621 1-209).
T7 construct: RIP-1 of C. elegans (R01H10.5); also called RIP-1-FLAG; source: budding yeast, co-expressed with RFS-1, in extract; purified by FLAG immunoprecipitation; not shown: FLAG, C-terminal, kept
T7 sequence (looked up): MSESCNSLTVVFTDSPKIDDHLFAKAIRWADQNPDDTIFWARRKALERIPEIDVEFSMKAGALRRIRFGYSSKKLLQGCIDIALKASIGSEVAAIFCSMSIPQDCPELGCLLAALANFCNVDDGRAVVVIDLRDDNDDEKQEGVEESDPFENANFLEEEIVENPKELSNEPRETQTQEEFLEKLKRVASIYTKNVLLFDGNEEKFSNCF
The data set is described as follows: SEC; 3 ml Superdex 75 5/150 GL column loaded with 30 ul RFS-1/RIP-1 from single-step FLAG immunoprecipitation; size from molecular weight markers. The note with it: both partners purified. (In general: In gel filtration, larger molecules generally elute earlier.)

A word on the stoichiometry N: it is the number of molecules, sites or subunits per partner or assembly.

B1: 60-mer ssDNA (ssDNA)
DNA: ACGCTGCCGAATTCTACCAGTGCCTTGCTAGGACATCTTTGCCCACCTGCAGGTTCACCC
Take B1: the binding result in data set [1], in data set [2], in data set [3], in data set [4], in data set [5] and in data set [6] was “binds” each time.

B2: 60-mer dsDNA (dsDNA)
DNA 1: ACGCTGCCGAATTCTACCAGTGCCTTGCTAGGACATCTTTGCCCACCTGCAGGTTCACCC
DNA 2: GGGTGAACCTGCAGGTGGGCAAAGATGTCCTAGCAAGGCACTGGTAGAATTCGGCAGCGT
For the molecule B2, the binding result in data set [7] is “no binding”.

B3: RFS-1 co-expressed with RIP-1 in budding yeast (natural protein, C. elegans, UniProt P34348 1-245, looked up)
chain: MDPSENVFKYETAYDLLVRLGAERLFLRTCLSILDPVLELHPGKCYEIDGDLGVGKTQICYSFAAKFLQTKKTAKMGWIGATPLRTDHLLLHIEHFGNQTNEDILDRIVCKRVEKIAELQDSLTRFLDTINLQLVIVENIDAILHDTVYHKEMGRSMQSDVVERIRKLTKLEITVILTNHITHWRGYPAPALGAFWSSQINNRFFIEKRNDDSDIRIVSAMKGEQDDGMNRIEFKIGDRGLKAVE
notes: RFS-1 of C. elegans; see Supplemental Experimental Procedures; also called recombinant RFS-1; source: budding yeast, co-expressed with RIP-1, in extract; co-purified by FLAG immunoprecipitation
As to B3, the “stoichiometry N” value in data set [8] was found to be 1.
